Here are results for one substance from article PMC5529715.

The test has as its target MBP-A3H hap II (APOBEC3H haplotype II, splicing variant SV182, MBP fusion) (human). The experiment in a line: SEC-MALS.

Consider “MBP-A3H hap II (APOBEC3H haplotype II, splicing variant SV182, MBP fusion) (enzyme)”, for which the stoichiometry N lay within 14 to 15 monomers.
